Measurements taken from the nanobody polyreactivity screen of Harvey et al. (2022).

Assay: yeast display, Sf9 membrane polyspecificity reagent, FACS + sequencing; frameworks hold sequencing errors
In short: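 Nanobodies came from a synthetic yeast display library in Saccharomyces cerevisiae BJ5465, induced with galactose for 36–48 hours and stained for 1 hour at 4 °C with 10% biotinylated, detergent-solubilized Sf9 membrane reagent. Cells were enriched on streptavidin microbeads and then FACS-sorted, with low and high (top ~1%) gates set on anti-HA fluorescence for expression and streptavidin fluorescence for reagent binding. Each polyreactivity label reflects the gate a clone came from. Genes were amplified by colony PCR, sequenced by MiSeq 2 × 250 and filtered by CDR length.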

Sequence	polyreactivity (PSR sort gate)
QVQLVESGGGLVQAGGSLRLSCAASGFTFHDYAMGWYRQAPGKERELVAAITKSGGRTYYADSVKGRFTISRDNAKNTVYLQMNSLKPEDTAVYYCNAVTLRRIYSNPEYDSWGQGTQVTVSS	high polyreactivity
QVQLVQSWRGLVQAGASLRLSCAASGRIFPGYAMGWYREAPGKERELDASSSRTGRTNYADSVKGRFTISRVNAKNTVYLQMNRLKPEYTAVYYCANASPWYFWGYDYWGQGSQVTVSS	low polyreactivity
QVQLVESGVGLVQAGGSLRLSCAASGRIFFNNAMGWYIQAPGKERELVAGITSGSSTNYADSVKGRFTISRDNAKNTVYLQMNSLKPEDTAVYYCNAGDFERDVVVFIQHGGYYWGQGTQVTVSS	low polyreactivity
QVQLVESGGGLVQAGGSLRLSCAASGRTINRSAMGWYRQAPGKARELVAAISTSGGTTYYADSVKGRFTISRDNAQNTAYLQMNSLKPEDPADYYCAKRGPVRTQYTYYYWGQGTQVTVSS	high polyreactivity
QVQLVESGGGLVQAGGSLRLSCAASGRIFVINAMGWYRQAPGKERELVAAISRRGANTYYADSVKGRFTISRDNAKNTVYLQMNSLKPEDTAVYYCNKVTVYRFRGDSWGQGTQVTVSS	high polyreactivity
QVQLVESGGGLVQAGGSLRLSCAASGYIFYYNTMGWYRQAPGKERELVAAISATGGRTYYADSVKGRFTISRDNAKNTVYLQMNSLKPEDTAVYYCAKRGISPYGYWGQGTQVTVSS	high polyreactivity
QVQLVESGGGLVQAGGSLLLSCAASGSTFPGYAMGWYRQEPGKERELVAAGGSTYYADSVKGRFTISLDNAKNTVYLQMNSLKPEDTAVYYCNARWYLVPIMEYLGQGTQVTVSS	low polyreactivity
QVQLVESGGGLVQAGGSLRLSCAASGRIFATNGMGWYRQATGKERELVATSTRSAGRTYYADSVKGRFTISRDNAKNTVYLQMNSLKPEDTAVYYCAADGYSTAVDDTVRYIVEYEYWGQGTQVTVSS	low polyreactivity
QVQLVESGGGLVQAGGSLRLSCAASGSIFKGYAMGWYRQAPGKEREFVAAITSSDSNTNYADSVKGRFTFSRDNAKNTVYLQLHTLKPEDTAVYYCNARIYNRLYVPHYGFNYWGQGTQVTVSS	low polyreactivity
QVQLVESGGGLVQAGGSLRLSCAAYGRILYYYAMGWYRQAPGKETELVAAITETSGSTYYADSVKGRFTISRDNAKTTVYLQMNSLHPEDTAVYYCAASSTRGHYTAYDYWGQGTHVTVSS	low polyreactivity
QVQLVESGGGLVQAGGSLRLSCAASGRIFYGNTMGWYRQAPGKERELVAAITWRGGSTYYADSVKGRFTISRDNAKITVYLQMNSLKPEDTAVYYCAAVSYRGRGYWGQGTQVTVSS	high polyreactivity
QVQLVESGGGLVQAGGSLRLSCAASGSIFAHYAMGGYRQAPGKERELVAAITRGGGTYYADSVKGRFTLSRDNAKNTVYLQMNSVKPEDTAVYYCARIYYVSIYRYDYWGQGTQVTVSS	high polyreactivity
QVQLVESGGGLVQAGGSLRLSCAASGSIFVYNAMGWYRQAPRKETEMVAAITSTGRTYYADSVKGRFTISRDNAKNTVYLKMNSLKPEDTGVYYCAATYVWSTLQYKTWQKLTHYGYWGQGTQVTVSS	high polyreactivity
KVQLVESGGGLVQAGGSLRLSCAASGITFYDYDMGWYRQEHGKERELVSAITWNGGSTYYADSVKGRFTISRDNAKNTVYLQMNSLKPVDTAVYYCAAESYYIYYYWGQGTQVTVSS	high polyreactivity
QVQLVESGGGLVQAGGSLRLSCAASGNTFGRYAMGWSRQAPGKEREFVAAIRWRGATTYYADSVKRRFTISRDNAKNPVDLQMNSMKPEDTAVYYCAAYYWGQGTGFDYWGQGTQVTVSS	high polyreactivity
QVQLVESGGGLVQAGGSLRLSCAASGNIFFRYTMGWYRQAPGKERELVAASSASGGSTYYADSVKGRFTISRDNAKNTVYLQMNSLKPEDTAVYYCAARILHYTSEYYYWGQGTQVTVSA	high polyreactivity
QVQLVESGGGLVQAGGSLRLSCAGYGLTFEYYTMGWYRQAPGKGRELVAAITSSGGSTYYADSVKGRFTISRDNSKNTFYLQMISLKPEDTAVYYCNAYLTYEFPSYDYWGQGTQVTVSS	low polyreactivity
QVKLVESGGGLVQAGGSLRLSCAASGSIFWSYAMGWYRQAPGKEREFVPSITGSGGTTTYADSVKGRFTISLDNAKNTVYVQMNSLKPEDTAVYYCNARLHGWYHVYYIYDYWGQGTQVTVSS	low polyreactivity
QVQLVESGGGLVQAGGSLRLSCAASGSTLGYYAMGWYRQAPGKERELVAAITSSDGGTYYADSVKGRFTISRDNAKNTVYLQMNSLKPEDTAVYYCAKRRYTSAFGSWYAYDYWGQGTQVNVSS	high polyreactivity
QVQLVESGGGLVQAGGSLRLSCAASGLIFSRYAMGWYRQAPGKERELVAVISWSGGRTYYSDSVKGRFTISRDNAKNTVYLQMNSLQPEDTAVYYCAADYKSGGSRYDYWGQGTQVTVSS	high polyreactivity
QVQLVESGGGIVQAGGSLRLSCAASGFIFWKNAMGWYSQAPGKERELVAAISTRGGSTYYADSVKGRFTISRDNAKNTVYLQMNSLKPEDTAVYYCNKEWYPYKHNYWGQGTQVTVSS	low polyreactivity
QVQLVESGGGLVQAGGSLRLSCAAPGSTFQFNVMGWYRQAPGKERELVAAITSGASTYYADSVKGRFTISRDNAKNTVYLQMYSLEPEDTAVYYCAVDYSFLYDYVQRYYYWGQGTQVTVSS	high polyreactivity
